# Laboratory results taken from patent US7135457 (CYTOGEN, dated 2006).
# B1: phage HAX40 (peptide)
# peptide: REFAERRLWGCDDLSWRLDAEGCGPTPSNRAVKHRKPRPRSPAL
# notes: pIII and flanks not included; also called H44
# Experiments:
# [1] = molecular target: T1, human intestinal peptide-associated transporter HPT1 receptor domain, amino acid residues 29-273, His-tag … (human, UniProt Q12864 29-273); assay: phage ELISA, OD on HPT1 over OD on BSA
# T1 construct: Expressed as His-tag fusion, purified under denaturing conditions, coated on plates; not shown: poly-histidine tag (pET His-tag) at the NH2-terminal end
# T1 sequence: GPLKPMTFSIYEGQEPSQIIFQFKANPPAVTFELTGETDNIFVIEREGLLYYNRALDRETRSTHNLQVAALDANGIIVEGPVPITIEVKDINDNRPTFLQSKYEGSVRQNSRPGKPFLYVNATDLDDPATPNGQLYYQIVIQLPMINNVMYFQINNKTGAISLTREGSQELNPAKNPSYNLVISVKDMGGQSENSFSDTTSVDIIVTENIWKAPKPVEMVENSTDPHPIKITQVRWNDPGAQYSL
# [2] = molecular target: T1, human intestinal peptide-associated …; assay: phage ELISA, coated HPT1 domain
# [3] = molecular target: T1, human intestinal peptide-associated …; assay: phage ELISA, OD on HPT1 over OD on BSA; remark: listed apart in the source
# Protocol: (§1) 6.6. Receptor ELISA Procedure 96 well plates were coated overnight with GIT receptor, BSA and, optionally, IDE (insulin degrading enzyme, an irrelevant His-fusion protein) or hTF. The plates were blocked for one hour with 0.5% BSA-PBS. After clarification, the amplified phage were diluted 1:100 in 1% BSA plus 0.05% Tween 20 in PBS and added to the plates. Following incubation of the plates on a rotator for 1 to 2 hours, the plates were washed 5 times with 1% BSA plus 0.05% Tween 20 in PBS. […] After the plates were washed 5 times, as described above, TMB substrate was added to the wells. The plates were read at 650 nm absorbance.
# [4] = molecular target: T2, human D2H transporter receptor domain, amino acid residues 387-685, His-tag fusion protein (human, UniProt Q07837 387-685); assay: phage ELISA, coated D2H domain
# T2 construct: Expressed as His-tag fusion, purified under denaturing conditions, coated on plates; not shown: poly-histidine tag (pET His-tag) at the NH2-terminal end
# T2 sequence: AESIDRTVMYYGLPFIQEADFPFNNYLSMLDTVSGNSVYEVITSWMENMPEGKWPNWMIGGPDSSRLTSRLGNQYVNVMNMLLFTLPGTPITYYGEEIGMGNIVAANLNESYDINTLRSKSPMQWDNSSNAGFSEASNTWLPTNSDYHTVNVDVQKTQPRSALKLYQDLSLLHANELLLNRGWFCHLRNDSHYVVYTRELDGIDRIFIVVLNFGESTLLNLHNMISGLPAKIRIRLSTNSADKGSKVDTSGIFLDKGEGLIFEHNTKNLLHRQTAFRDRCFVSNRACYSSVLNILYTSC
# Protocol: as §1
# (§2) Binding to fixed Caco-2 cells, D2H and BSA was examined.
# [5] = molecular target: T2, human D2H transporter receptor domain, …; assay: phage ELISA, OD on D2H over OD on BSA
# Protocol: as §1, §2
Binder,HPT/BSA [1] [ratio],OD [2] [OD 650 nm],HPT1/BSA [3] [ratio],OD [4] [OD 650 nm],D2H/BSA [5] [ratio]
SREEANWDGYKREMSHRSRFWDATHLSRPRRPANSGDPN (pIII and flanks not included) [phage HAX9],5,0.382,,,
B1,15,0.991,,,
SDHALGTNLRSDNAKEPGDYNCCGNGNSTGRKVFNRRRPSAIPT (pIII and flanks not included) [phage HAX42],5,0.32,,,
RHISEYSFANSHLMGGESKRKGCGINGSFSPTCPRSPTPAFRRT (pIII and flanks not included) [phage HCA3],,,1,,
RWNWTVLPATGGHYWTRSTDYHAINNHRPSIPHQHPTPI (pIII and flanks not included) [phage DCX33],,,,0.616,6
RYSGLSPRDNGPACSQEATLEGCGAQRLMSTRRKGRNSRPGWTL (pIII and flanks not included) [phage DCX42],,,,0.158,2
SVGNDKTSRPVSFYGRVSDLWNASLMPKRTPSSKRHDDG (pIII and flanks not included) [phage DCX45],,,,0.336,4
